Measured values published in patent publication US20180044429A1 (CELLDEX THERAPEUTICS, published 2018).

T1: recombinant human CD27 (soluble, captured on anti-FLAG coated ELISA plates) (human, UniProt P26842 20-191)
T1 construct: also called rCD27; sCD27
T1 sequence: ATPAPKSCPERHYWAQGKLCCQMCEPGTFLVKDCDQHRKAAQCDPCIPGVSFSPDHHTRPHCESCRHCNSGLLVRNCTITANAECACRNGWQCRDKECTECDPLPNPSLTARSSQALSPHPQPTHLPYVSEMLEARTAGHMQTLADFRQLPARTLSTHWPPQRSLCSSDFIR


Legend:
[1] = target: soluble recombinant human CD27 with R87A substitution (human) (UniProt P26842); experiment: ELISA; mutated (R87A) CD27 captured on plates coated with anti-FLAG antibody, detection with goat anti-human IgG Fc-HRP; panel title 'mutated CD27'
[2] = target: T1, recombinant human CD27 (soluble, …); experiment: ELISA; CD27 captured on plates coated with anti-FLAG antibody, detection with goat anti-human IgG Fc-HRP; panel title 'Recombinant CD27'
Description: In this example, the binding activity of the CD27 agonists prepared as described in Example 2 was examined. Binding to recombinant CD27 (rCD27) was tested by standard ELISA. Human CD27 was captured on ELISA plates coated with anti-FLAG antibody, followed by incubation with CD27 agonists. A goat anti-human IgG Fc-HRP (horseradish peroxidase) antibody and substrate Super Blue TMB were used for detection.
The CD27 agonists tested were 1F5mAb-1F5sFv (sFv), 1F5mAb-2C2sFv (sFv) and 1F5mAb-CD70. The full-length, unconjugated IgG form of the anti-human CD27 monoclonal antibodies 1F5 and 2C2 were used as positive controls. Binding to a mutant form of soluble CD27, in which the arginine at position 87 was substituted with alanine (R87A), which is within the 1F5 binding site, was also tested.

EC50 (read off the curve) [1] | binding result [2] | Binder
0.02 µg/mL | binds | human anti-human CD27 monoclonal antibody 2C2 (full-length, unconjugated IgG) (antibody, V domains shown, Tested as full-length unconjugated IgG; also called 2C2 mAb) VH: QVQLVESGGGVVQPGRSLRLSCAASGFTFSSYDIHWVRQAPGKGLEWVAVIWNDGSNKYYADSVKGRFTISRDNSTNSLFLQMNSLRAEDTAVYYCVGGTADLEHWDQGTLVTVSS VL: DIQMTQSPSSLSASVGDRVTITCRASQGISSWLAWYQQKPEKAPKSLIYAASSLQSGVPSRFSGSGSGTDFTLTISSLQPEDFATYYCQQYNSYPLTFGGGTKVEIK
 | binds | human anti-human CD27 monoclonal antibody 1F5 (full-length, unconjugated IgG) (antibody, V domains shown, also called 1F5 mAb; anti-CD27 antibody (1F5)) VH: QVQLVESGGGVVQPGRSLRLSCAASGFTFSSYDMHWVRQAPGKGLEWVAVIWYDGSNKYYADSVKGRFTISRDNSKNTLYLQMNSLRAEDTAVYYCARGSGNWGFFDYWGQGTLVTVSS VL: DIQMTQSPSSLSASVGDRVTITCRASQGISRWLAWYQQKPEKAPKSLIYAASSLQSGVPSRFSGSGSGTDFTLTISSLQPEDFATYYCQQYNTYPRTFGQGTKVEIK
